This passage reports Kd and stoichiometry N results from publication doi:10.1101/507483.

Like-named read-outs stand apart in the source and are kept apart here.

Assay [1] has as its target TagA^ΔC, N-terminal domain of TagA from Thermoanaerobacter italicus (residues Met1-Gly195) (Thermoanaerobacter italicus). Put plainly: AUC.
Assay [2] shares this target. Nature of the assay: AUC. This is another data set of the same source.

In assay [1], “TagA^ΔC, N-terminal domain of TagA from Thermoanaerobacter italicus (residues Met1-Gly195) (domain or fragment)” had a dissociation constant (Kd) of 7.4 µM and a stoichiometry N of 2. In assay [2], this substance showed a Kd of 3.5 µM and a stoichiometry N of 2.

A word on the Kd: it is a measure of binding affinity in units of concentration. A low value points to tighter binding. For orientation: stoichiometry N means a count of units in the complex or per binding partner.
